Measured values from patent US20220205015A1 (NANYANG TECHNOLOGICAL UNIVERSITY, published 2022).
Read-outs that look alike come from different tables or passages of the source. Where no end group is shown, it is not given here.

Key:
[1] = system: T1, LL37ARRA (CLLGDFARRAKEKIG)
T1 sequence: CLLGDFARRAKEKIG

[2] = target: T2, OmpT (omptin outer membrane protease of Escherichia coli), recombinant, reconstituted in detergent micelles (Escherichia coli, UniProt P09169 21-317); assay: cell-based or functional assay
T2 sequence: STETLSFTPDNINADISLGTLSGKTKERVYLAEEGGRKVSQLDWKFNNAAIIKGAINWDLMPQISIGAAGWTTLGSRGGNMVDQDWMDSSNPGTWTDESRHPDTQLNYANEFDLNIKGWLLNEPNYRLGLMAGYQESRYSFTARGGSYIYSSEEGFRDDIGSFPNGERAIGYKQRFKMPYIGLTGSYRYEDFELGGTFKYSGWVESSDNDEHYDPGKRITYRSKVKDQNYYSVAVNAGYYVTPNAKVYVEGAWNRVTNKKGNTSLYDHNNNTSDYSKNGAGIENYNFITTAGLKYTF

[3] = target: T3, LL37ARRA (CLLGDFARRAKEKIG)
T3 chain: CLLGDFARRAKEKIG

[4] = target: T4, LL37FRRA (CLLGDFFRRAKEKIG)
T4 chain: CLLGDFFRRAKEKIG

[5] = target: T5, LL37FRRV (CLLGDFFRRVKEKIG)
T5 chain: CLLGDFFRRVKEKIG

[6] = target: T6, LL37FRRY (CLLGDFFRRYKEKIG)
T6 chain: CLLGDFFRRYKEKIG

[7] = target: T7, LL37YRRA (CLLGDFYRRAKEKIG)
T7 chain: CLLGDFYRRAKEKIG

**Q.** With “PgtE (omptin protease, present on pathogenic Salmonella typhi)” as the molecule, how does the “proteolytic activity, measured as the change in PT6 fluorescence with time” value [1] read?
**A.** Its value is “OmpT exhibits a higher preference for LL37ARRA (SEQ ID NO: 11) than does PgtE”.

B1: LL37FRRV (CLLGDFFRRVKEKIG) (peptide)
peptide: CLLGDFFRRVKEKIG-NH2
**Q.** For B1, which “incubation time with OmpT for an almost complete reduction in PT6 fluorescence” value [2] is on record?
**A.** Its value is greater than 40 min.

B2: LL37FRRA (CLLGDFFRRAKEKIG) (peptide)
peptide: CLLGDFFRRAKEKIG
**Q.** How did the “colour of PT6 under UV-A light after incubation with OmpT” value [2] turn out when B2 was run?
**A.** Its value is no more than 10 min.

**Q.** And the “incubation time with OmpT for an almost complete reduction in PT6 fluorescence” value [2]?
**A.** Its value is less than 20 min.

B3: LL37YRRA (CLLGDFYRRAKEKIG) (peptide)
peptide: CLLGDFYRRAKEKIG
**Q.** B3 was tested. Which “colour of PT6 under UV-A light after incubation with OmpT” value [2] did it give?
**A.** The value was no more than 10 min.

**Q.** And the “incubation time with OmpT for an almost complete reduction in PT6 fluorescence” value [2]?
**A.** Its value is less than 20 min.

B4: LL37FRRY (CLLGDFFRRYKEKIG) (peptide)
peptide: CLLGDFFRRYKEKIG
**Q.** What does the source list for B4?
**A.** colour of PT6 under UV-A light after incubation with OmpT [2]: ≤ 10 min; incubation time with OmpT for an almost complete reduction in PT6 fluorescence [2]: < 20 min

B5: OmpT (omptin outer membrane protease of Escherichia coli), recombinant, reconstituted in detergent micelles (protein)
chain: T2 sequence
**Q.** With B5 as the molecule, how does the “proteolytic activity, measured as the change in PT6 fluorescence with time” value [3] read?
**A.** The value was “OmpT exhibits a higher preference for LL37ARRA (SEQ ID NO: 11) than does PgtE”.

**Q.** And the “rate of cleavage by OmpT” value [4]?
**A.** The value was “cleaved by the protease (OmpT) much more rapidly than the LL37FRRY peptide substrate used in Examples 1-5”.

**Q.** What about the “time to full cleavage by OmpT” value [4] of the same molecule?
**A.** The value was “fully cleaved by OmpT in less than 20 min”.

**Q.** What about the “SAMDI-MS screen of a peptide array for cleavage by omptin proteases” value [5] of the same molecule?
**A.** Its value is 400 times better then original peptide.

**Q.** And the “cleavage, confirmed by MALDI-TOF” value [5]?
**A.** The value was “it was cleaved at the dibasic site (-R8-R9-) to yield two short fragments of eight and seven residues”.

**Q.** And the “rate of cleavage by OmpT” value [6]?
**A.** Its value is “cleaved by the protease (OmpT) much more rapidly than the LL37FRRY peptide substrate used in Examples 1-5”.

**Q.** What about the “rate of cleavage by OmpT” value [7] of the same molecule?
**A.** The value was “cleaved by the protease (OmpT) much more rapidly than the LL37FRRY peptide substrate used in Examples 1-5”.

**Q.** What about the “time to full cleavage by OmpT” value [7] of the same molecule?
**A.** The value was “fully cleaved by OmpT in less than 20 min”.
